Starred links: 1 amine or outer side, 2 acyl side, 3 side chain; linkers in the order of their positions; H or OH if unused. Non-standard residues stand in square brackets, D forms with d. Primed or numbered codes have the meaning given here. No end group written: not given here. *: point of attachment. PEG12 = NCCOCCOCCOCCOCCOCCOCCOCCOCCOCCOCCOCCOCCC(=O)O; Oic = O=C(O)[C@@H]1C[C@@H]2CCCC[C@@H]2N1; Dip = N[C@H](C(=O)O)C(c1ccccc1)c1ccccc1; Ida″ = O=C(CN(CC(=O)[*:3])[*:1])[*:2]; Palmitoyl = CCCCCCCCCCCCCCCC(=O)*; β3hF = N[C@H](CC(=O)O)Cc1ccccc1; NMeD = CN[C@@H](CC(=O)O)C(=O)O; β3hP = O=C(O)C[C@@H]1CCCN1; Ach = not defined here; Dpa = not defined here
Experiments:
[1] = biological target: ferroportin tagged at the C-terminus with green fluorescent protein [GFP: P42212]; test: cell-based or functional assay
[2] = biological target: ferroportin tagged at the C-terminus with green fluorescent protein [GFP: P42212]; test: cell-based or functional assay; remark: listed apart in the source

Binder | EC50 (nM) in vitro [1] | other results
[NMeD]TH[Dpa][β3hP]RCR[β3hF] (reading uncertain; also: R14 = Palmitoyl-PEG-miniPEG3- substituent, attachment not placed) [PR57] | 2 nM | 
{Palmitoyl-PEG12}-FICIP[Dip]HTD (not fully specified (C-terminus); printed as R4-F-I-C-I-P-Dpa-H-T-D; also: retroinverted, D residues underlined, underlining lost) [PR47] | 50 nM | 
[Ida″]TH[Dpa]P[Ach]C[Ach]F (reading uncertain; also: R14 = Palmitoyl-PEG-miniPEG3- substituent, attachment not placed) [PR60] | 3 nM | 
[NMeD]TH[Dpa][β3hP]ICI[β3hF] (reading uncertain; also: R14 = Palmitoyl-PEG-miniPEG3- substituent, attachment not placed) [PR54] | 10 nM | 
{Palmitoyl-PEG12}-FVCVP[Dip]HTD (not fully specified (C-terminus); printed as R4-F-V-C-V-P-Dpa-H-T-D; also: retroinverted, D residues underlined, underlining lost) [PR51] | 100 nM | 
DTHFPICIF-NH2 [Hep9 (Hep1-9)] |  | potency against Hep25 on a mass basis, flow-cytometry assay of ferroportin-GFP internalization (times less potent than Hep25) [2]: 4; potency against Hep25 on a molar basis, flow-cytometry assay of ferroportin-GFP internalization (times less potent than Hep25) [2]: 10
DTHAPICIFCCGCCHRSKCGMCCKT [Hep25 F4A] |  | relative hepcidin activity (FIG. 1) [2]: > 70 % decrease
[Ida″]TH[Dpa][β3hP]ICI[β3hF] (reading uncertain; also: R14 = Palmitoyl-PEG-miniPEG3- substituent, attachment not placed) [PR59] | 2 nM | 
{Palmitoyl-PEG12}-[Dip]ICIP[Dip]H (not fully specified (C-terminus); printed as R4-Dpa-I-C-I-P-Dpa-H; also: retroinverted, D residues underlined, underlining lost) [PR50] | < 10 nM | 
DTHFPIAIFC-NH2 [Hep10 (Hep1-10 C7A)] |  | potency against Hep25 on a mass basis, flow-cytometry assay of ferroportin-GFP internalization (times less potent than Hep25) [2]: 4; potency against Hep25 on a molar basis, flow-cytometry assay of ferroportin-GFP internalization (times less potent than Hep25) [2]: 10
DTHFPICIACCGCCHRSKCGMCCKT [Hep25 F9A] |  | relative hepcidin activity (FIG. 1) [2]: > 70 % decrease
{Palmitoyl-PEG12}-FICIP[Dip]H (not fully specified (C-terminus); printed as R4-F-I-C-I-P-Dpa-H; also: retroinverted, D residues underlined, underlining lost) [PR49] | < 10 nM | 
[NMeD]TH[Dpa]PICI[β3hF] (reading uncertain; also: R14 = Palmitoyl-PEG-miniPEG3- substituent, attachment not placed) [PR53] | 10 nM | 

Now from value to binder, other results behind:

EC50 (nM) in vitro [1] | Binder | other results
< 10 nM | {Palmitoyl-PEG12}-FLCLP[Dip]HTD (not fully specified (C-terminus); printed as R4-F-L-C-L-P-Dpa-H-T-D; also: retroinverted, D residues underlined, underlining lost) [PR52] | 
15 nM | [NMeD]TH[Dpa][Oic]RCR[β3hF] (reading uncertain; also: R14 = Palmitoyl-PEG-miniPEG3- substituent, attachment not placed) [PR56] | 
10 nM | [NMeD]TH[Dpa]P[Ach]C[Ach]F (reading uncertain; also: R14 = Palmitoyl-PEG-miniPEG3- substituent, attachment not placed) [PR55] | 
1 nM | [Ida″]TH[Dpa]PICI[β3hF] (reading uncertain; also: R14 = Palmitoyl-PEG-miniPEG3- substituent, attachment not placed) [PR58] | 
50 nM | {Palmitoyl-PEG12}-[Dip]ICIP[Dip]HTD (not fully specified (C-terminus); printed as R4-Dpa-I-C-I-P-Dpa-H-T-D; also: retroinverted, D residues underlined, underlining lost) [PR48] | 
